Results from patent publication US8361473B2, “Antibodies and their uses for diagnosis and treatment of cytomegalovirus infection and associated diseases” (priority 2007, dated 2013).

Assays:
[1] = test system: HLA-A2/pp65 complex (pp65 495-503 peptide); assay: ELISA with phage clones and purified Fab Abs, specific complex; type: binding, human; conditions: soluble purified Fab
Protocol: ELISA with phage clones and purified Fab Abs—The binding specificities of individual phage clones and soluble Fab were determined by ELISA using biotinylated scMHC-peptide complexes. ELISA plates (Falcon) were coated overnight with BSA-biotin (1 μg/well). After having been washed, the plates were incubated (1 hour, RT) with streptavidin (1 μg/well), washed extensively, and further incubated (1 hour, RT) with 0.5 μg of MHC/peptide complexes. The plates were blocked for 30 minutes at RT with PBS/2% skim milk and subsequently were incubated for 1 hour at RT with phage clones (˜10^9 phages/well) or various concentrations of soluble purified Fab. […]
A large human Fab library containing 3.7×10^10 different Fab clones was used for the selection on biotinylatd HLA-A2/pp65 complexes (De Haard H J., et al., 1999). […] Specificity of the selected phage antibodies against the complex was analyzed by a differential ELISA assay in which binding was tested against specific (pp65 495-503 peptide; SEQ ID NO:3) and non specific (gp100 280-288 peptide; SEQ ID NO:4) biotinylated HLA-A2/peptide complexes. […]
To determine the correct folding of the bound complexes and their stability during the binding assays, the ability of the complexes to react with the conformation-specific mAb, w6/32, that recognizes HLA complexes only when folded correctly and when containing peptide was monitored.

[2] = molecular target: T1, pp65-loaded RMA-S-HHD cells (UniProt P06725+P61769); assay: Flow cytometry on peptide-loaded RMA-S-HHD cells; type: cell-based, murine; conditions: Fab, control: EBV derived peptide
T1 construct: expressed in transfected cells; host or cells: murine TAP2-deficient RMA-S cells (RMA-S-HHD)
Protocol: Flow cytometry—The B cell line RMAS-HHD, which is transfected with a single-chain β2m-HLA-A2 gene, the EBV-transformed HLA-A2^+ JY cells, and the HLA-A2− B cell line APD-70 were used to determine the reactivity of the recombinant Fab Abs with cell surface-expressed HLA-A2/peptide complexes. Peptide pulsing was performed as indicated: 10^6 cells were washed twice with serum-free RPMI and incubated overnight at 26° C. or 37° C., respectively, in medium containing 1-50 μM of the peptide. The RMAS-HHD cells were subsequently incubated at 37° C. for 2-3 hours to stabilize cell surface expression of MHC-peptide complexes.
Cells were incubated for 60 minutes at 4° C. with recombinant Fab Abs (10 μg/ml) in 100 μl PBS. After one wash, the cells were incubated with 1 μg anti-human Fab (Jackson ImmunoResearch) for another 60 minutes at 4° C. After three washes, the cells were resuspended in ice-cold PBS. The cells were analyzed by a FACStar flow cytometer (BD Biosciences, San Jose, Calif.).
The pp65495-503 peptide and control peptides were loaded on RMA-S-HHD cells and the ability of the selected Fab Abs to bind to peptide-loaded cells was monitored by flow cytometry.

B1: F5: human recombinant TCR-like Fab clone specific for HLA-A2/pp65 495-503; heavy chain SEQ ID NO:20, light chain SEQ ID NO:22 (antibody)
heavy: QVQLQESGPGLVKPSETLSLTCTVSGGSISSSNYYWGWIRQPPGKGLEWIGAIYYSGSTYYNPSLKSRVAISVDTSKNQFSLKLSSVTAADTAVYYCARRIGVAGQWYFDLWGRGTLVTVSSASTKGPSVFPLAPSSKSTSGGTAALGCLVKDYFPEPVTVSWNSGALTSGVHTFPAVLQSSGLYSLSSVVTVPSSSLGTQTYICNVNHKPSNTKVDKKVEPKSC
light: LNFMLTQPHSVSGSPGKTVTISCTRSTGSITSNYVHWYQQRPGSSPTTVICEDNERPSGVPDRFSGSIDISSNSASLTISGLKTEDEADYYCQSYDDSNHISVFGTGTKVTVLGQPKANPCLISDFYPGAVTVAWKADGSPVKAGVETTKPSKQSNNKYAASSYLSLTPEQWKSHRSYSCQVTHEGSTVEKTVAPAECS
modifications: F5 Fab heavy chain polypeptide sequence; F5 Fab light chain polypeptide sequence
binding to the specific HLA-A2/pp65 complex [1]: Specificity towards HLA-A2/pp65 complex | reactivity with peptide-loaded RMA-S-HHD cells [2]: reacted only with pp65-loaded RMA-S-HHD cells
